How the values were obtained:
[1] = molecular target: T1, VmoLac (Vulcanisaeta moutnovskia, UniProt F0QXN6); format: biochemical
T1 construct: gene VMUT_2255; full length, 315 residues; Strep tag removed by TEV protease; E. coli BL21(DE3)-pGro7/GroEL; homodimer; bi-cobalt enzyme

[2] = molecular target: T1, VmoLac; format: binding
[3] = test system: CCCCCCCCC1CCC(=O)O1; experiment: purified protein; conditions: pH 8.3; 25.0 °C
[4] = test system: CCCCC1CCCC(=O)O1; experiment: purified protein; conditions: pH 8.3; 25.0 °C
[5] = test system: CCCC1CCC(=O)O1; experiment: purified protein; conditions: pH 8.3; 25.0 °C
[6] = test system: CCCCCC1CCC(=O)O1; experiment: purified protein; conditions: pH 8.3; 25.0 °C
[7] = test system: CCCCCC(=O)CC(=O)N[C@H]1CCOC1=O; experiment: purified protein; conditions: pH 8.3; 25.0 °C
[8] = test system: CCCCCCCC1CCCC(=O)O1; experiment: purified protein; conditions: pH 8.3; 25.0 °C
[9] = test system: CCCCCCCC(=O)NC1CCOC1=O; experiment: purified protein; conditions: pH 8.3; 25.0 °C
[10] = test system: CCC1CCC(=O)O1; experiment: purified protein; conditions: pH 8.3; 25.0 °C
[11] = test system: CCCCCCC1CCCC(=O)O1; experiment: purified protein; conditions: pH 8.3; 25.0 °C
[12] = test system: CCCCCCCC(=O)CC(=O)N[C@H]1CCOC1=O; experiment: purified protein; conditions: pH 8.3; 25.0 °C

`CCOP(=O)(OCC)Oc1ccc([N+](=O)[O-])cc1` [I, ethyl-paraoxon] showed a Km ([1]; HEPES 50 mM pH 8, NaCl 150 mM, CoCl2 0.2 mM, 25°C) of 581 ± 61 µM.
In the case of `CC(=O)Oc1ccc([N+](=O)[O-])cc1` [VIII, pNP-Acetate], the “KM (μM)” value [1] is reported as 4 471 ± 593 μM.
For `CCCCCCCC(=O)CC(=O)N[C@H]1CCOC1=O` [XVI, 3-oxo C10 AHL], the “X-ray crystal structure, soaked crystal, 2.0 Å” value [2] was “Crystals of VmoLac were soaked with 3-oxo-C10 AHL, and the lactone sits”.
Work on “VmoLac (Vulcanisaeta moutnovskia 768-28)” yielded a K0.5 [3] of 2.1 ± 0.6 µM, a kcat/Km [3] of 77700 ± 24000 M⁻¹ s⁻¹ and a Km [4] of 1220 ± 59 µM. For the same compound, the kcat/Km [4] was 72900 ± 3700 M⁻¹ s⁻¹, the Km [5] was 872 ± 220 µM and the kcat/Km [5] was 31200 ± 8600 M⁻¹ s⁻¹. For the same compound, the Km [6] was 47 ± 11 µM, the kcat/Km [6] was 948000 ± 218000 M⁻¹ s⁻¹ and the Km [7] was 186 ± 37 µM. The kcat/Km [7] was 1880 ± 380 M⁻¹ s⁻¹, the K0.5 [8] was 839 ± 13 µM and the Km [9] was 262 ± 54 µM. It also gave a kcat/Km [9] of 2230 ± 480 M⁻¹ s⁻¹, a Km [10] of 3709 ± 497 µM and a kcat/Km [10] of 30300 ± 4600 M⁻¹ s⁻¹. The Km [11] was 105 ± 24 µM, the kcat/Km [11] was 580000 ± 132000 M⁻¹ s⁻¹ and the Km [12] was 231 ± 55 µM. It also gave a kcat/Km [12] of 2050 ± 500 M⁻¹ s⁻¹.
